In PMC11870394:

Biological target: RSV prefusion F (PR-DM) (respiratory syncytial virus A) (UniProt P03420)
Test: cryo-EM structure

For “RSV prefusion F (PR-DM) (from UniProt P03420) (complex)”, the stoichiometry N was 3.
